Test [1] concerns the target T1, human CD112R on Jurkat CD112R effector cells (human, UniProt Q6DKI7 1-326).
T1 sequence (looked up): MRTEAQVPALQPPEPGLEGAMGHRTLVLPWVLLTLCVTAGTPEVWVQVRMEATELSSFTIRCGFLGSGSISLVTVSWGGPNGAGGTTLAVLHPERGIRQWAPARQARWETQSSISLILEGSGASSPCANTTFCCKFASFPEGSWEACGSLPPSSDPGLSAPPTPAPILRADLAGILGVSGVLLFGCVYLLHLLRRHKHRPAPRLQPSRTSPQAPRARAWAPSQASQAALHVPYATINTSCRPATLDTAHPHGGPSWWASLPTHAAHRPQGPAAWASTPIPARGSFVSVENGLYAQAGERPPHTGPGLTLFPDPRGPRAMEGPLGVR
The test can be described thus: cell-based or functional assay.

The target of test [2] is T2, hCD112R mFC recombinant protein (human; murine, UniProt Q6DKI7 41-160).
T2 construct: range 41-160; expressed in 293E cells; also called hCD112R ECD mFC; hCD112R-ECD-mFC; not shown: murine IgG2a Fc domain (MX2-mFc vector)
T2 sequence (looked up): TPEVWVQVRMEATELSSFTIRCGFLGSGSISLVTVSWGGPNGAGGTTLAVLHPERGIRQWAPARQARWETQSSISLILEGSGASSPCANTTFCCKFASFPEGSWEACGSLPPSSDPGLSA
Description: FACS competition, hCD112R mFc on CHO CD112 cells. As to the method:
Unbound antibodies were then washed with a staining buffer and the cells were incubated with 1% (v/v) goat anti-mouse IgG Fc fluorescent secondary antibodies (Jackson ImmunoResearch) prepared in a staining buffer at 4° C. for 30 min in the dark. Finally, the cells were collected by using a flow cytometer, and the fluorescent antibodies bound to the cell surface were detected. Raw data were analyzed by using FlowJo to obtain MFI values, and a four-parameter curve fitting was performed by using GraphPad Prism software to obtain IC₅₀ values.

Test [3] has as its target T2, hCD112R mFC recombinant protein. Description: Biacore T200, antibody captured, hCD112R mFc injected. As to the method: Biacore T200 was used to assay the binding affinity of the anti-CD112R hybridoma antibodies for the recombinant hCD112R mFc protein. […] antibody fragments (Jackson ImmunoResearch) were coupled to the surface of a CM5 chip, and the anti-CD112R hybridoma antibodies were each captured by using the chip, after which recombinant hCD112R mFc proteins at different concentrations were injected into the CM5 chip.

Test [4] has the same target. The test can be described thus: ELISA, coated hCD112R-ECD-mFC. In outline: (§1)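 Plates coated with hCD112R-ECD-mFC at 1.5 μg/mL; humanized antibodies titrated from 1 μg/mL, 2.5-fold, 12 points. Bound antibody detected with HRP anti-human IgG Fc and TMB, read at 420/620 nm; EC50 from 4PL fit, COM701 and anti-KLH hu-IgG4 as controls.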
Test [5] concerns the target T3, mouse CD112R antigen (mouse).
T3 construct: bought
The test can be described thus: ELISA on coated mouse CD112R, OD 450 nm, ambiguous fit of a nearly flat curve; unit from the axis. Here is the method:
Plates were coated with a recombinant cynomolgus monkey CD112R antigen (purchased from Acrobiosystems, Cat No. PVG-C5259) and a mouse CD112R antigen (purchased from Acrobiosystems, Cat No. PVG-M5257) at fixed concentrations, respectively, and the humanized anti-CD112R antibodies diluted in a gradient (initial concentration: 1 μg/mL, 2.5-fold gradient dilution, 12 concentration gradients in total) were added to bind to the antigens, HRP-conjugated mouse anti-human IgG4 Fc (Southern Biotech. 9200-05) was subjected to a 5000-fold dilution and used as detection antibody for detection. The color development was performed with 0.1 mg/mL TMB, and finally stopped with 2 M hydrochloric acid. […] EC₅₀ was obtained by fitting with a four-parameter logistic regression (4PL) model.

Test [6] deals with T2, hCD112R mFC recombinant protein. Description: FACS competition, hCD112R mFc on CHO CD112 cells; IC50 COM701/IC50 antibody. In outline: (§2)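 CHO cells overexpressing human CD112 were co-incubated 30 min at 4 °C with hCD112R mFc (5 μg/mL) and humanized anti-CD112R antibodies (from 100 μg/mL, 3-fold, 10 points). Bound fusion protein detected with anti-mouse IgG Fc secondary by flow cytometry; IC50 from four-parameter fit of MFI. COM701 served as positive control, anti-KLH hu-IgG4 as negative.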

Test [7] has the same target. The test can be described thus: FACS competition, hCD112R mFc on CHO CD112 cells. In outline: as §2
This is another data set of the same source.

Test [8] concerns the target T1, human CD112R on Jurkat CD112R effector …. The test can be described thus: cell-based or functional assay. This is another data set of the same source.
Test [9] addresses T2, hCD112R mFC recombinant protein. Description: ELISA, coated hCD112R-ECD-mFC; EC50 COM701/EC50 antibody. In outline: as §1
In test [10] the target is T4, recombinant cynomolgus monkey CD112R antigen (cynomolgus monkey, UniProt A0A2K5WVV8 1-322).
T4 construct: bought
T4 sequence: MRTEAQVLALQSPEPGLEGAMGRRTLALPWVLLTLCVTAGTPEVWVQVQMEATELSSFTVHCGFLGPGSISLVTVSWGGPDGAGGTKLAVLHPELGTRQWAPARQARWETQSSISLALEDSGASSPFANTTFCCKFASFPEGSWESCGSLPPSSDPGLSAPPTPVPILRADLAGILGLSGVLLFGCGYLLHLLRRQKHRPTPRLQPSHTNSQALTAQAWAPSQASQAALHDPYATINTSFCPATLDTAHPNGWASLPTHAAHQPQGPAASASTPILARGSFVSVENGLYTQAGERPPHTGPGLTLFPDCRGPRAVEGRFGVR
Description: ELISA, coated cynomolgus monkey CD112R. Here is the method: Plates were coated with a recombinant cynomolgus monkey CD112R antigen (purchased from Acrobiosystems, Cat No. PVG-C5259) and a mouse CD112R antigen (purchased from Acrobiosystems, Cat No. PVG-M5257) at fixed concentrations, respectively, and the humanized anti-CD112R antibodies diluted in a gradient (initial concentration: 1 μg/mL, 2.5-fold gradient dilution, 12 concentration gradients in total) were added to bind to the antigens, HRP-conjugated mouse anti-human IgG4 Fc (Southern Biotech. 9200-05) was subjected to a 5000-fold dilution and used as detection antibody for detection. The color development was performed with 0.1 mg/mL TMB, and finally stopped with 2 M hydrochloric acid. The plates were read at 420 nm/620 nm. EC₅₀ was obtained by fitting with a four-parameter logistic regression (4PL) model.

Test [11] deals with T4, recombinant cynomolgus monkey CD112R …. The test can be described thus: ELISA on coated recombinant cynomolgus monkey CD112R, OD 450 nm, 4PL fit; unit from the axis.

Read-outs that look alike come from different tables or passages of the source.

B1: 4E5.1 (antibody, V domains shown)
VH: EVMLVESGGGLVKPGGSLKLSCAASGFTFSNYIMSWVRQTPDMRLEWVATISSGGSSTYYVDRVKGGFPFSRDSVKYILYVHTSSLRSADTAIYYCAKHEDWDPLYYYSMDYWGQGTSVTVSS
VL: QIVLTQSPTVMSASPGDKVTMTCSASSSVSYMYWFQQKPGSSPRLLIYDTSHLAFGVPSRFSGSRSGTSYSLTISRMEAEDTATYYCQQWTTYPLTFGAGTKLELK
notes: murine hybridoma antibody
As to B1, the “EC50, CD112R/CD112 NFAT-luciferase reporter” value in [1] is 0.0552 µg/mL. Besides, in test [2], the half-maximal inhibitory concentration (IC50) stood at 0.111 µg/mL. Moreover, in test [3], the Kd was 9.26 pM.

B2: 7C2.1 (antibody, V domains shown)
VH: DVKLVESGGGLVKLGGSLKLSCAASGFTFSSYHMSWIRQTPEKRLELVAAINSNGINTYYLDTVKGRFTISRDNAKNTLYLQMSSLKSEDTALYYCARHEDYYGFAMDYWGQGTSVTVSS
VL: SIVMTQTPKFLLVSAGDRVTITCKASQSVSNDVAWYQQKPGQSPKLLMYYVSNRFTGVPDRFTGSGYGTDFTFTINTVQAEDLAVYFCQQAYRSPWTFGGGTKLEIK
Regarding B2, in test [1], the “EC50, CD112R/CD112 NFAT-luciferase reporter” value came out at 0.0379 µg/mL.

B3: 3D2.1 (antibody, V domains shown)
VH: DVQLVESGGGLVKLGGSLKLSCVASGFTFSSYHMSWIRQTPEKRLELVAAINSNDINTYYLDTVKGRFTISRDIAKNTLHLQMSSLKSEDTALYYCARHEDYYGFAMDYWGQGTSVTVSS
VL: DIQLTQSPASLSVSVGETVTITCRVSANIYSNLVWYHQRQGKSPQLLVYGGTNLADGVPSRFSGSGSGTQFSLKINSLQSEDFGSYHCQHFWSTPYTFGGGTKLEIK
For the molecule B3, the “EC50, CD112R/CD112 NFAT-luciferase reporter” value in test [1] was 0.0493 µg/mL.

B4: 5C10.1 (antibody, V domains shown)
VH: DVKLVESGGGLVKLGGSLKLSCAASGFTFSSYHMSWVRQTPEKRLELVAAISRDGDSTYYPDTVKGRFTISRDDAENTLYLQMSSLKSEDTALYYCSRHEDYFGFAMDSWGQGTSVTVSS
VL: SIVMTQTPKFLLVSAGDRVTITCKASQSVTNDVAWYQQKPGQSPKLLMYYVSNHYTGVPDRFIGSGYGTDFTFTISTVQAEDLAVYFCQQAYRSPWTFGGGTKLEIK
As to B4, the “EC50, CD112R/CD112 NFAT-luciferase reporter” value in test [1] turned out to be 0.0404 µg/mL.

B5: 6A10.1 (antibody, V domains shown)
VH: DVKLVESGGGLVKLGGSLKLSCAASGFTFSSYHMSWVRQTPEKRLELVAAINSNVISTYYLDTVKGRFTISRDNAKNTLYLQMSSLKSEDTALYYCARHEDYYGFAMDYWGQGTSVTVSS
VL: SIVMTQTPKFLLVSAGDRVTITCKASQSVSNDVAWYQEKPGQSPKLLMYYVSHRFTGVPDRFTGSGYGTDFTFTINTVQAEDLAVYFCHQAYRSPWTFGGGTKLEIK
As to B5, the “EC50, CD112R/CD112 NFAT-luciferase reporter” value in test [1] was 0.0507 µg/mL.

B6: Hu59 (antibody, human IgG4 S228P, kappa)
heavy: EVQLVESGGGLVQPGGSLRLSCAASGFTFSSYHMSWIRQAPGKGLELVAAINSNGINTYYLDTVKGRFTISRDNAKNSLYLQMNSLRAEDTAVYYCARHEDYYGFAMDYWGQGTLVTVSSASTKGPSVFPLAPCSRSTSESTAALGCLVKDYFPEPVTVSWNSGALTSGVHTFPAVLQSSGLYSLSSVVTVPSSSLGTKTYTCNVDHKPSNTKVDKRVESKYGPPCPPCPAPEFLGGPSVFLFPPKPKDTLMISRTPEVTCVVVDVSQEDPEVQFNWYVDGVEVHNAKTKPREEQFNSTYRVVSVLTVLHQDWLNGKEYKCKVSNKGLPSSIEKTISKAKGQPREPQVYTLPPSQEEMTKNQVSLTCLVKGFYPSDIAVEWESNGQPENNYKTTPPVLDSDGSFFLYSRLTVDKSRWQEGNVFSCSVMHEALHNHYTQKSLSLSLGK
light: DIQMTQSPSSLSASVGDRVTITCKASQSVSNDVAWYQQKPGKAPKLLIYYVSNRFTGVPSRFSGSGSGTDFTLTISSLQPEDFATYFCQQAYRSPWTFGQGTKLEIKRTVAAPSVFIFPPSDEQLKSGTASVVCLLNNFYPREAKVQWKVDNALQSGNSQESVTEQDSKDSTYSLSSTLTLSKADYEKHKVYACEVTHQGLSSPVTKSFNRGEC
notes: humanized; 7C2VH2 + 7C2VL1
As for B6, the concentration giving a half-maximal response (EC50) in test [4] was 0.00496 µg/mL; in [5], about 1970 µg/mL; in [10], 0.00262 µg/mL. For the same molecule, the figures for the “Relative activity (%)” value in [6] and in test [9] were 76% and 169%, respectively. In addition, the IC50 in test [7] was 3.17 µg/mL. Moreover, the “EC50, CD112R/CD112 reporter” value in test [8] came out at 0.0188 µg/mL. In [8], the “Relative activity (%), EC50 COM701/EC50 antibody” value was found to be 312%.

B7: Hu16 (antibody, human IgG4 S228P, kappa)
heavy: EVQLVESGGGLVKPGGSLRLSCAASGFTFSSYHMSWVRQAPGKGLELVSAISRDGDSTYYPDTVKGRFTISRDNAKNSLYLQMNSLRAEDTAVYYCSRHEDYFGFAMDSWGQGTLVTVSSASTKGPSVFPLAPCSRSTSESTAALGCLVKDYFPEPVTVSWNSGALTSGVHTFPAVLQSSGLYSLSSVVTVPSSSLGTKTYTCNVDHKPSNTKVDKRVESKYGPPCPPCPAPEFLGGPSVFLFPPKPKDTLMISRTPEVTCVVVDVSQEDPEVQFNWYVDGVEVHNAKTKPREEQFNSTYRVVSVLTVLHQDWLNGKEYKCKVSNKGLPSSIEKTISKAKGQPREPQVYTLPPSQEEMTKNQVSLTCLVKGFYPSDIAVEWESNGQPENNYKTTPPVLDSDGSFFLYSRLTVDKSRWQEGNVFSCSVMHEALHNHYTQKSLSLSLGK
light: DIVMTQSPDSLAVSLGERATINCKASQSVSNDVAWYQQKPGQPPKLLIYYVSHRFTGVPDRFSGSGSGTDFTLTISSLQAEDVAVYFCHQAYRSPWTFGQGTKLEIKRTVAAPSVFIFPPSDEQLKSGTASVVCLLNNFYPREAKVQWKVDNALQSGNSQESVTEQDSKDSTYSLSSTLTLSKADYEKHKVYACEVTHQGLSSPVTKSFNRGEC
notes: humanized; 5C10VH1 + 6A10VL2
As to B7, the half-maximal effective concentration (EC50) was 0.00426 µg/mL in test [4], about 683 µg/mL in test [5] and 0.00292 µg/mL in test [10]. Moreover, the “Relative activity (%)” value stood at 143% in [6] and 126% in test [9]. For the same molecule, the half-maximal inhibitory concentration (IC50) in test [7] was 2.5 µg/mL. Also, the “EC50, CD112R/CD112 reporter” value in test [8] is 0.0196 µg/mL. In addition, the “Relative activity (%), EC50 COM701/EC50 antibody” value in test [8] was 253%.

B8: COM701 (antibody, V domains shown)
VH: QVQLVQSGAEVKKPGASVKVSCKASGYTFTDYNINWVRQAPGQGLEWMGYIYPYIGGSGYAQKFQGRVTMTRDTSTSTVYMELSSLRSEDTAVYYCAREDKTARNAMDYWGQGTLVTVSS
VL: DIQMTQSPSSLSASVGDRVTITCRVSENIYSNLAWYQQKPGKAPKLLIYEATNLAEGVPSRFSGSGSGTDFTLTISSLQPEDFATYYCQHFWGTPYTFGQGTKLEIK
Regarding B8, the figures for the half-maximal effective concentration (EC50) in [5] and in test [11] were about 1.06 µg/mL and 0.00428 µg/mL, respectively.

B9: 2G10.1 (antibody, V domains shown)
VH: QVQLQQSGAELVKPGASVKLSCKASGYTFTSHYMYWLKQRPGQGLEWIGEINPSNGDTKFNEKFKSKATLTVDKSSSTAYMQLSSLTSEDSAVYYCTREKDAFSALDYWGQGTSVTDSS
VL: DIQMIQSPSSMFASLGDRVSLSCRASQGIRGHLDWYQQKPGGTIKLLIYSTSILNFGVPSRFSGSGSGSDYSLTISSLESEDFADYYCLQRNAYPLTFGAGTKLELK
notes: murine hybridoma antibody
On to B9, for which the “EC50, CD112R/CD112 NFAT-luciferase reporter” value in test [1] is 0.0729 µg/mL. Moreover, in [2], the 50% inhibitory concentration (IC50) is 0.261 µg/mL. Also, the Kd in test [3] was determined as 30.2 pM.

These data come from patent US20240309087A1 (SHANGHAI JUNSHI BIOSCIENCES, published 2024).
